Measured values reported in patent US20080095772A1 (Chugai, published 2008).

Columns and labels:
human PTHrP (1-34) [1] = target: T1, human PTHrP (1-34) (human); test: ELISA on plate-coated human PTHrP (1-34) (1 µg/ml); bound antibody detected with alkaline phosphatase-conjugated goat anti-human IgG; O.D. 405/620
T1 construct: Synthetic peptide (Peninsula; Peptide Research Institute), coated on ELISA plates at 1 µg/ml or used in solid phase RIA; also called human parathyroid hormone related protein (1-34)
Protocol: (§1) An ELISA plate for determining antigen binding ability was prepared as follows. Each of the wells of a 96-well plate for ELISA (Maxisorp, NUNC) was coated with 100 μl of a coating buffer supplemented with 1 μg/ml of human PTHrP (1-34) and then blocked with 200 μl of a dilution buffer. Thereafter, into each of the wells, was added a culture supernatant of the COS-7 cells in which the hybrid antibody or humanized antibody was expressed or a solution of the purified hybrid antibody or the purified humanized antibody in stepwise dilution. After incubating at room temperature and washing with PBS-Tween20, 100 μl of alkaline phosphatase-conjugated goat anti-human IgG antibody (TAGO) was added to each of the wells. […] The solution was measured for absorbance at 405 nm using Microplate Reader (Bio Rad).

human PTHrP (1-34) [2] = target: T1, human PTHrP (1-34); test: as above; remark: listed apart in the source
Protocol: An ELISA plate for the determination of antigen binding ability was prepared as follows. Each of the wells of a 96-well plate for ELISA was coated with 100 μl of a solution comprising human PTHrP (1-34) (Peptide Research Institute) prepared in a coating buffer of a concentration of 1 μg/ml and then blocked with 200 μl of a dilution buffer. […] After incubating at room temperature and washing with PBS-Tween20, each well was added with 100 μl of a solution of alkaline phosphatase-conjugated goat anti-human IgG antibodies (TAGO). After incubating at room temperature and washing with PBS-Tween20, each well was added with 1 mg/ml of a substrate solution (“Sigma104”, p-nitrophenylphosphoric acid, SIGMA). The solution was measured for absorbance at −405 nm using Microplate Reader (Bio Rad).

PTHrP (1-34+Cys) = PTHrP (1-34+Cys) (human, C-terminal Cys coupled to sensor tip CM5 through PDEA (thiol coupling)); test: BIACORE (SPR), PTHrP (1-34+C) immobilised on CM5 through the C-terminal Cys, antibody as analyte
Protocol: In this experiment, kinetic analysis of the antigen-antibody interaction using BIACORE was conducted. PTHrP(1-34+Cys) was used as an antigen and adsorbed onto the sensor tip specifically for C-terminals. Purified antibodies of various concentrations were used as an analyte. From the sensorgram obtained, kinetics parameters (binding rate constant “kass” and dissociation rate constant “kdiss”) were calculated.
As a running buffer, HBS (10 mM HEPES, pH 7.4; 0.15 M NaCl; 3.4 mM EDTA; 0.005% Surfactant P20) at a flow rate of 5 μl/min. was employed. The carboxyl groups of carboxymethyldextran on the sensor tip CM5 were activated by an injection of 100 μl of 0.05M N-hydroxysuccinimide (NHS)/0.2M N-ethyl-N′-(3-dimethylaminopropyl)carbodiimide hydrochloride (EDC) and an injection of 100 μl of 80 mM 2-(2-pyridinyldithio)ethanamine (PDEA)/0.1M borate buffer (pH 8.5), and an additional injection of 10 μl of 5 μg/ml PTHrP (1-34+C)/10 mM sodium acetate buffer (pH 5.0) to adsorbe onto the C-terminals of PTHrP (1-34+C) specifically for Cys residues. Subsequently, an injection of 100 μl of 50 mM (L)-cystein/1M NaCl/0.1M sodium formate buffer (pH 4.3) was conducted to block excessively activated groups. Subsequently, an injection of 10 μl of 0.1M glycine-HCl buffer (pH 2.5) and 10 μl of 10 mM HCl was conducted to wash the substances having non-covalent bonding.
The date file of interest was read and a comparison of the reaction patterns was conducted by overlaying the reaction regions of interest (FIGS. 20-24). […] Further, kinetic analysis of the interaction was conducted using an analysis software specifically designed for BIACORE “BIAevaluation 2.1” (Pharmacia) which is capable of calculating the kinetics parameters (binding rate constant “kass” and dissociation rate constant “kdiss”) by curve cutting (Tables 4 and 5).

human PTHrP (1-34) [3] = target: T1, human PTHrP (1-34); test: solid phase RIA of hybridoma supernatants
human PTHrP (1-34) [4] = target: T1, human PTHrP (1-34); test: ELISA on plate-coated human PTHrP (1-34) (1 µg/ml); bound antibody detected with alkaline phosphatase-conjugated goat anti-human IgG; O.D. 405/620; remark: listed apart in the source
Protocol: as §1

B1: hH / hLf (antibody, V domains shown)
VH: QVQLVESGGGVVQPGRSLRLSCAASGFTFSSYGMSWVRQAPGKGLEWVATISSGGSYTYYPDSVKGRFTISRDNSKNTLYLQMNSLRAEDTAVYYCARQTTMTYFAYWGQGTLVTVSS
VL: QLVLTQSPSASASLGASVKLTCTLSSQHSTYTIEWHQQQPEKGPRYLMKLKQDGSHSTGDGIPDRFSGSSSGAERYLTISSLQPEDEADYICGVGDTIKEQFVYVFGGGTKLTVL
notes: copies: 2 + 2
binding result (human PTHrP (1-34) [1]): no binding (tested: about 380 ng/ml)

B2: chimeric #23-57-137-1 antibody with human κ L chain C region (antibody, V domains shown)
VH: EVQLVESGGDLVKPGGSLKLSCAASGFTFSSYGMSWIRQTPDKRLEWVATISSGGSYTYYPDSVKGRFTISRDNAKNTLYLQMSSLKSEDTAMFYCARQTTMTYFAYWGQGTLVTVSA
VL: QLVLTQSSSASFSLGASAKLTCTLSSQHSTYTIEWYQQQPLKPPKYVMDLKQDGSHSTGDGIPDRFSGSSSGADRYLSISNIQPEDEAMYICGVGDTIKEQFVYVFGGGTKVTVLG
notes: Mouse V regions on a human Cγ1 H chain C region and a human Cκ L chain C region (from HEF-PM1k-gk); also called chimeric antibody (κ); MBC1HcDNA + MBC1L(κ)/neo
binding result (human PTHrP (1-34) [2]): binds

B3: mouse monoclonal antibody #23-57-137-1 (antibody, V domains shown)
VH: B2 VH
VL: B2 VL
notes: Whole mouse antibody with a mouse λ L chain; The H chain cDNA was amplified with the MHC-G1 primer; also called MBC
Kd (PTHrP (1-34+Cys)): 0.102 nM
koff (PTHrP (1-34+Cys)): 7.38e-05 s⁻¹
kon (PTHrP (1-34+Cys)): 723000 M⁻¹ s⁻¹
binding result (human PTHrP (1-34) [3]): binds

B4: antibody comprising the humanized H chain version "a" and the chimeric L chain (antibody, V domains shown)
VH: B1 VH
VL: B2 VL
notes: Human Cγ1 H chain C region
binding result (human PTHrP (1-34) [4]): binds

B5: humanized #23-57-137-1 antibody, H chain version a, L chain version j (antibody, V domains shown)
VH: B1 VH
VL: QLVLTQSPSASASLGASVKLTCTLSSQHSTYTIEWYQQQPEKGPKYLMDLKQDGSHSTGDGIPDRFSGSSSGAERYLTISSLQSEDEADYYCGVGDTIKEQFVYVFGGGTKLTVLG
notes: Human Cγ1 and human Cλ C regions; Expressed in COS-7
binding result (human PTHrP (1-34) [1]): binds
